Measurements from the supplement of paper PMC9112550, “Optimization of the antimicrobial peptide Bac7 by deep mutational scanning” (BMC Biology, 2022).

Each sequence was assayed on Escherichia coli TOP10 (assay: shrunken log2 fold change of peptide-encoding DNA abundance (4.5 h post-induction vs induction); higher = less antimicrobial activity (less host growth inhibition)). Conditions: time post-induction: 4.5 h; library: site-saturation at positions 5, 18, 19, 20.
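Further: peptides expressed intracellularly from a pBAD plasmid library in pooled LB shake-flask culture, induced with 0.3% L-arabinose, DNA abundance read by NGS, three biological replicates, DESeq2 with apeglm shrinkage.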

Sequence | shrunken log2 fold change
RRIRHRPPRLPRPRPRPDLPPRP | 0.107
RRIRKRPPRLPRPRPRPTYRPRP | 0.647
RRIRPRPPRLPRPRPRPAEVPRP | -0.0315
RRIRSRPPRLPRPRPRPGDIPRP | -0.198
RRIRTRPPRLPRPRPRPVVDPRP | 0.452
RRIRLRPPRLPRPRPRPFKNPRP | -0.499
RRIRRRPPRLPRPRPRPACHPRP | 0.306
RRIRDRPPRLPRPRPRPNNRPRP | -0.178
RRIRCRPPRLPRPRPRPSLNPRP | -0.341
RRIRSRPPRLPRPRPRPADKPRP | -0.254
RRIRMRPPRLPRPRPRPCQAPRP | 0.0538
RRIRWRPPRLPRPRPRPPMFPRP | -0.00833
RRIRFRPPRLPRPRPRPPVIPRP | 0.0684
RRIRNRPPRLPRPRPRPTHRPRP | 0.597
RRIRVRPPRLPRPRPRPMVNPRP | -0.158
RRIRIRPPRLPRPRPRPKWAPRP | -0.105
RRIRDRPPRLPRPRPRPAVWPRP | 1.19
RRIRERPPRLPRPRPRPYRSPRP | -1.42
RRIRCRPPRLPRPRPRPDLKPRP | -0.257
RRIRVRPPRLPRPRPRPMKRPRP | 0.0336
RRIRMRPPRLPRPRPRPFKLPRP | 0.102
RRIRTRPPRLPRPRPRPHPWPRP | -0.0609

Sequence | shrunken log2 fold change
RRIRVRPPRLPRPRPRPRMEPRP | 0.413
RRIRHRPPRLPRPRPRPAKIPRP | -0.0242
RRIRWRPPRLPRPRPRPGHHPRP | 0.0195
RRIRIRPPRLPRPRPRPYEIPRP | -0.811
RRIRARPPRLPRPRPRPRVMPRP | 0.197
RRIRYRPPRLPRPRPRPAHIPRP | -0.467
RRIRHRPPRLPRPRPRPMEDPRP | 0.0325
RRIRLRPPRLPRPRPRPYAKPRP | 0.0695
RRIRLRPPRLPRPRPRPIVKPRP | -0.0195
RRIRWRPPRLPRPRPRPRNGPRP | 0.401
RRIRGRPPRLPRPRPRPGKRPRP | 0.249
RRIRSRPPRLPRPRPRPEDEPRP | -0.0488
RRIRYRPPRLPRPRPRPGTEPRP | -0.521
RRIRCRPPRLPRPRPRPMLWPRP | -0.00796
RRIRRRPPRLPRPRPRPLHNPRP | 0.188
RRIRPRPPRLPRPRPRPRYWPRP | 0.0515
RRIRARPPRLPRPRPRPMNTPRP | 0.0292
RRIRMRPPRLPRPRPRPCNTPRP | -0.238
RRIRNRPPRLPRPRPRPIAIPRP | -0.0153
RRIRIRPPRLPRPRPRPMMSPRP | -0.00118
RRIRPRPPRLPRPRPRPDYGPRP | 0.014
RRIRFRPPRLPRPRPRPILCPRP | -0.192

Sequence | shrunken log2 fold change
RRIRYRPPRLPRPRPRPNYNPRP | -1.43
RRIRRRPPRLPRPRPRPSKIPRP | 0.0224
RRIRMRPPRLPRPRPRPHLIPRP | 0.133
RRIRRRPPRLPRPRPRPSWGPRP | -0.0778
RRIRGRPPRLPRPRPRPLEDPRP | 0.205
RRIRYRPPRLPRPRPRPSDPPRP | -0.374
RRIRIRPPRLPRPRPRPLKIPRP | 1.44
RRIRGRPPRLPRPRPRPFIKPRP | -0.484
RRIRGRPPRLPRPRPRPPSQPRP | 0.882
RRIRWRPPRLPRPRPRPCRIPRP | -0.113
RRIRTRPPRLPRPRPRPPQQPRP | 0.211
RRIRPRPPRLPRPRPRPPFYPRP | 0.0888
RRIRQRPPRLPRPRPRPYGYPRP | -0.354
RRIRLRPPRLPRPRPRPKQWPRP | 0.176
RRIRCRPPRLPRPRPRPLNLPRP | -0.489
RRIRFRPPRLPRPRPRPWRWPRP | 0.0911
RRIRCRPPRLPRPRPRPAAKPRP | 0.164
RRIRCRPPRLPRPRPRPHPMPRP | -0.243
RRIRFRPPRLPRPRPRPFIFPRP | -0.544
RRIRVRPPRLPRPRPRPRWDPRP | 0.193
RRIRWRPPRLPRPRPRPSFQPRP | -0.284
RRIRYRPPRLPRPRPRPKINPRP | -0.902

Sequence | shrunken log2 fold change
RRIRFRPPRLPRPRPRPCCTPRP | -0.337
RRIRERPPRLPRPRPRPQPEPRP | -0.0263
RRIRMRPPRLPRPRPRPCRQPRP | 0.0303
RRIRFRPPRLPRPRPRPIKVPRP | -0.379
RRIRARPPRLPRPRPRPCHQPRP | -0.34
RRIRKRPPRLPRPRPRPTKSPRP | 2.1
RRIRKRPPRLPRPRPRPSWLPRP | 0.303
RRIRFRPPRLPRPRPRPYYPPRP | -1.19
RRIRFRPPRLPRPRPRPPFPPRP | 0.454
RRIRSRPPRLPRPRPRPHMNPRP | -0.548
RRIRFRPPRLPRPRPRPVSQPRP | 0.0413
RRIRVRPPRLPRPRPRPGIRPRP | -0.0476
RRIRVRPPRLPRPRPRPEPLPRP | 0.204
RRIRNRPPRLPRPRPRPTIWPRP | -0.23
RRIRIRPPRLPRPRPRPQQCPRP | -0.211
RRIRPRPPRLPRPRPRPDYVPRP | -0.343
RRIRMRPPRLPRPRPRPFQLPRP | 0.118
RRIRARPPRLPRPRPRPTPIPRP | 0.747
RRIRTRPPRLPRPRPRPMPNPRP | -0.17
RRIRSRPPRLPRPRPRPGSWPRP | 0.605
RRIRMRPPRLPRPRPRPATMPRP | 0.256
RRIRIRPPRLPRPRPRPELLPRP | -0.0102

Sequence | shrunken log2 fold change
RRIRNRPPRLPRPRPRPAYMPRP | -0.119
RRIRPRPPRLPRPRPRPLHLPRP | -0.311
RRIRARPPRLPRPRPRPTWQPRP | 0.4
RRIRPRPPRLPRPRPRPKLVPRP | 0.0371
RRIRIRPPRLPRPRPRPQYSPRP | -0.581
RRIRWRPPRLPRPRPRPGCCPRP | 0.659
RRIRCRPPRLPRPRPRPWFPPRP | -0.699
RRIRQRPPRLPRPRPRPLKPPRP | 0.0722
RRIRQRPPRLPRPRPRPNGEPRP | 0.0404
RRIRQRPPRLPRPRPRPNVVPRP | 0.0298
RRIRYRPPRLPRPRPRPNKSPRP | -0.941
RRIRKRPPRLPRPRPRPFATPRP | 0.45
RRIRKRPPRLPRPRPRPSVMPRP | 0.163
RRIRLRPPRLPRPRPRPWSRPRP | -0.264
RRIRMRPPRLPRPRPRPTWWPRP | 0.596
RRIRNRPPRLPRPRPRPPPVPRP | 0.933
RRIRWRPPRLPRPRPRPWKWPRP | -0.0893
RRIRYRPPRLPRPRPRPVERPRP | 0.00806
RRIRPRPPRLPRPRPRPGGEPRP | 0.601
RRIRTRPPRLPRPRPRPIDTPRP | -0.157
RRIRDRPPRLPRPRPRPFNYPRP | -0.048
